Results reported in IntAct's records for PubMed 19846556.

B1: Peroxisome proliferator-activated receptor gamma coactivator 1-alpha (Homo sapiens), Q9UBK2 (parent)
chain: MAWDMCNQDSESVWSDIECAALVGEDQPLCPDLPELDLSELDVNDLDTDSFLGGLKWCSDQSEIISNQYNNEPSNIFEKIDEENEANLLAVLTETLDSLPVDEDGLPSFDALTDGDVTTDNEASPSSMPDGTPPPQEAEEPSLLKKLLLAPANTQLSYNECSGLSTQNHANHNHRIRTNPAIVKTENSWSNKAKSICQQQKPQRRPCSELLKYLTTNDDPPHTKPTENRNSSRDKCTSKKKSHTQSQSQHLQAKPTTLSLPLTPESPNDPKGSPFENKTIERTLSVELSGTAGLTPPTTPPHKANQDNPFRASPKLKSSCKTVVPPPSKKPRYSESSGTQGNNSTKKGPEQSELYAQLSKSSVLTGGHEERKTKRPSLRLFGDHDYCQSINSKTEILINISQELQDSRQLENKDVSSDWQGQICSSTDSDQCYLRETLEASKQVSPCSTRKQLQDQEIRAELNKHFGHPSQAVFDDEADKTGELRDSDFSNEQFSKLPMFINSGLAMDGLFDDSEDESDKLSYPWDGTQSYSLFNVSPSCSSFNSPCRDSVSPPKSLFSQRPQRMRSRSRSFSRHRSCSRSPYSRSRSRSPGSRSSSRSCYYYESSHYRHRTHRNSPLYVRSRSRSPYSRRPRYDSYEEYQHERLKREEYRREYEKRESERAKQRERQRQKAIEERRVIYVGKIRPDTTRTELRDRFEVFGEIEECTVNLRDDGDSYGFITYRYTCDAFAALENGYTLRRSNETDFELYFCGRKQFFKSNYADLDSNSDDFDPASTKSKYDSLDFDSLLKEAQRSLRR
partner: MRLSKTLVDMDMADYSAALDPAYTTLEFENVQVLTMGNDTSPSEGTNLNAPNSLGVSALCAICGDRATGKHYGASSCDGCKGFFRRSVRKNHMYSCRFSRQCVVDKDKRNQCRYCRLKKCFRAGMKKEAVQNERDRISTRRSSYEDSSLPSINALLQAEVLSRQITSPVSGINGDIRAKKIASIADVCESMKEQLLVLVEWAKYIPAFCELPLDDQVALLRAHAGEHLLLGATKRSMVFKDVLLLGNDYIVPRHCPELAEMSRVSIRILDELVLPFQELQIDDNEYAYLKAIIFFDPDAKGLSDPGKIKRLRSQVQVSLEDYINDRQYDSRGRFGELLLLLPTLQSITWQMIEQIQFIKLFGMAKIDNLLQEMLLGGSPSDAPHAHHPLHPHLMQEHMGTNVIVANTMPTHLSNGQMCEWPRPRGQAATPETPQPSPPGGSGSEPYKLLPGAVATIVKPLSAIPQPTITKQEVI

What was measured:
[1] = variants of: B1; details: with hnf4a_human HNF4A
[2] = variants of: B1; details: with hnf4a_human HNF4A; remark: listed apart in the source

Variant	effect of a mutation on the interaction [1]	effect of a mutation on the interaction [2]
V91A;L92A;Y213A;L214A	decreasing interaction	decreasing interaction
V91A;L92A;L147A;L148A;Y213A;L214A	disrupting interaction	disrupting interaction
L147A;L148A	decreasing interaction	–
Y213A;L214A	decreasing interaction	–
V91A;L92A;L147A;L148A	decreasing interaction	decreasing interaction
L147A;L148A;Y213A;L214A	disrupting interaction	disrupting interaction
V91A;L92A	–	decreasing interaction
